Assay results: the DeepSol protein solubility set

Test: soluble on expression in E. coli; label from the status in PepcDB or PDB records
In the case of “MAHHHHHHMTLGPTTRVTVNVTGTVTVPLHLNALESLDDAPLQEEIMREAVRLSLAEQLGGFDNFTVTSARKGGNHVCEARLDVGDLCSIIADVKNAYEHGERRLRELQQLITAIREQLKESGREGGSEDEDITVPGIVKVVSDMVEDALRGPGESSLSAAIREVSNDKSWLEEVPVGDRSGGAASKSDEDSPSGVGYTRLPDSGEDSNGSERQLE”, the “soluble on expression in E. coli” value was “soluble”.
In the case of “GSHMAAAKQDVKVFSEDGTSKVVEILADMTARDLCQLLVYKSHSVDDNSWTLVEHHPHLGLERCLEDHELVVQVESTMASESKFLFRKNYAKYEFFKNPMNFFPEQMVTWSQQSNGSQTQLLQNFLNSSSSPEIQGFLHVKELGKKSWKKLYVCLRRSGLYCSTKGTSAAPRHLQLLADLEDSNIFSLIAGRKQYNAPTDHGLCIKPNKVRNETKELRLLCAEDEQTRTSWMTAFRLLKYGMLLYQNYRIPQQRKA”, the “soluble on expression in E. coli” value was “soluble”.
With “MGSDKIHHHHHHMSDRKEDLERQINLTFAFLSANSYSRKFLTQVWIRDNVGDYKGLTDTAFRKKLQRDLAYLRRVGVPIEQFTVTSGIAEGQQAYRLAQDSYKLPEVEFTPDEAAVLGMAGEMGHNQELGAFARSGWTKLAAGGAQRDLSTSTALTNAGDLGSLSAKTLDAIIKARQLGKQISFEYRRAPKDAPSLRHMDPWGLVPERDRIYLVGFDLDRQEARTFRITRVRNINLGADATHPMPAGTNLQDMVRAQLRRKSVLIDATLRITPGRAVELRAAGVETSDGAWFLEDVDRDWLVRTAAAHAPEALVIEPKDVIDDVIALLRKVENEVV” the “soluble on expression in E. coli” value was “not soluble”.
With “MCRLAVFALLAVAAVSVYGQPAGGQDVPPFLRNATPAQLQSFQQLIQANGHLTETALDGKVQAWVNQQGGKVAADWADFQKFIKGQQGQAEAAHQAAVSNFSPAAKKADADLTAISNDSSLSVQAKGQKIQAYLNSLPANVKAELEKAQGQ” the “soluble on expression in E. coli” value was “soluble”.
With “MSLTFCYPCRAFALLTRGFTSFMSGWPRIYYKLLNLPLSILVKSKSIPADPAPELGLDTSRPIMYVLPYNSKADLLTLRAQCLAHDLPDPLEPLEIDGTLLPRYVFIHGGPRVFTYYTPKEESIKLFHDYLDLHRSNPNLDVQMVPVSVMFGRAPGREKGEVNPPLRMLNGVQKFFAVLWLGRDSFVRFSPSVSLRRMADEHGTDKTIAQKLARVARMHFARQRLAAVGPRLPARQDLFNKLLASRAIAKAVEDEARSKKISHEKAQQNAIALMEEIAANFSYEMIRLTDRILGFTWNRLYQGINVHNAERVRQLAHDGHELVYVPCHRSHMDYLLLSYVLYHQGLVPPHIAAGINLNFWPAGPIFRRLGAFFIRRTFKGNKLYSTVFREYLGELFSRGYSVEYFVEGGRSRTGRLLDPKTGTLSMTIQAMLRGGTRPITLIPIYIGYEHVMEVGTYAKELRGATKEKESLPQMLRGLSKLRNLGQGYVNFGEPMPLMTYLNQHVPDWRESIDPIEAVRPAWLTPTVNNIAADLMVRINNAGAANAMNLCCTALLASRQRSLTREQLTEQLNCYLDLMRNVPYSTDSTVPSASASELIDHALQMNKFEVEKDTIGDIIILPREQAVLMTYYRNNIAHMLVLPSLMAAIVTQHRHISRDVLMEHVNVLYPMLKAELFLRWDRDELPDVIDALANEMQRQGLITLQDDELHINPVHSRTLQLLAAGARETLQRYAITFWLLSANPSINRGTLEKESRTVAQRLSVLHGINAPEFFDKAVFSSLVLTLRDEGYISDSGDAEPAETMKVYQLLAELITSDVRLTIESATQGEEGHHHHHH” the “soluble on expression in E. coli” value was “soluble”.
In the case of “MSLNYSHAFHAGNHADVLKHIVLLALLDGLVRKETPFFVLDSHAGRGRYLLSAGESRNTREAESGVMRLIARPQRLEVIKRYVDVVQADNVSQTRAASTPMHISRYPGSSLLAAQVCRAQDRMVFCELHPKEAAALNALFVHDPRVRVHAGDGYAAVRAFLPPKVGTQRIGRGLVFIDPPYEAQDAEYPLVLGALRETLTRWPQAICAVWYPIKQRRRLQPFFRKAVGLPVRSVLIAELLVRLDDSPLRLNGSGMLLLNVPWQFDQLLAPALPVLKTQLGESGARTRLEWLKVPQEGHHHHHH”, the “soluble on expression in E. coli” value was “not soluble”.
With “MLSALACNMKYSSHPAAVAAGRGGNRRGGRMYAYERITDPAGFAAIEDEWRALAEACGGGGVFASHAFLLSWAETFGQGRRLAVSLLRHKGALVGALPMFHTGQARAVAAMGEGRAGMAQWLLHPDLPDADAALAALLRPDWLSFWRLEPLETPDAEALERAARRAGLAVRRKATMRACSVTTEGDFDSYLGGLKSKTRQVFRRSERKLAEMEVRDLRSDRDGRAALDAYLAASRASWKGLTGTGYGAAPEGVAFVEKLFERLGPEACYLAARQVGEVAISGRFVLVHDNMHYGMANDFNEEYADLAVGRNSIMQSVRDAFEGGAAGFDFTRCNGLVREVSTDERPLERVLIHRRGDPTLAAFFAARGLRRLRRKASGWQKGRRGVVS” the “soluble on expression in E. coli” value was “not soluble”.
For “MSLKKILIIDQQDFSRIELKNFLDSEYLVIESKNEKEALEQIDHHHPDLVILDMDIIGENSPNLCLKLKRSKGLKNVPLILLFSSEHKEAIVNGLHSGADDYLTKPFNRNDLLSRIEIHLRTQNYYSDLRKNDLLMLLELTETISVTRNPRRILSIIVERLIKTIDVSRCSIIGINDFGELLVLASSDLPENQEIKLDLKKYPEIEKALETQRPVVLQDITNSALMKPVKKHIEALSDNAVFVVPIIKKQNVIGTFFLRTACLQKGGITDRIFKLCQVIASISGNALENAIIFESMETNKKLLEDLSVRDSLTKLYNHQHYHSRLEDEFSRAQRYNLDLSCIFLDIDNFKNINDRYGHLAGDMVLRQIARLISQVIRKSDISARYGGEEFAICLPNTGGVAANELAERLLVMIRELSIQQLKGEHVTVSIGTSTYSNHNVASYSELLHLADDAMYEAKKSGKNRFCCSTAMEGHHHHHH”, the “soluble on expression in E. coli” value was “soluble”.
With “MGSDKIHHHHHHMQFGNHPYYANELMLSLDEASGMVGEDARVAEFIRPLYGSRESISGTPRTCLWITDENLALAQEIPAVWARVEKVRKDRKTKTKDVQAKKLVETPWRFRDQYEAESSLLVVPIVSSENRPYLPVVLLSKEAIVHNKAFALYDAPLWNFALIVSKMHLVWVAAVCVRLEMRYSYSNTLGWNTFPVPTLTEQNKADLTRCAEDILLARESHYPATIADLYGPDNMPDDLLRAHERNDEVLERIYIGRRFRNDTERLEKLFDLYTKMTAGQGKPKKKAKK” the “soluble on expression in E. coli” value was “not soluble”.
For “MAHHHHHHMQTNYNEIRNLFNYYIREYFYQKSKGSYFVHFKKPGILFMSLKCYKRKKMYYPCIYDWYFDNLNNVKKNKDIFQYKNEYNTKNIYSHKICTEKENLGKNNSYVETDNIYLNKSEENLQNIYKSSNLYYNINPIYLSKICLYNLNEYHILYSNNYYDAFTQYYYSLISYKMDVHNMKIFPNLKILISHIKNISNIINDEVIKNAYIYLIKQRNIMNEEYLKNVFRNIYTTMLHNSSLYLFVDNHDQFIMILKIIKTDDIKSMFESAIPYPYYLIVDENINIYNLQSFNIYINSILNQRMQYNYPYNEKEKGSILNHYNNDKMYMTYNNNINQSKDIKIEKQTEQNEKGFNSMLDTDKGVYEKNIIKDKNDKVYFFKFIKIFDMKPNYRFKQKK”, the “soluble on expression in E. coli” value was “not soluble”.
In the case of “MGSDKIHHHHHHMAITIQFSNYALKTDETLIQRIQFVYSPLNELFRSLHVLLNPRHHGTNIDWVIRIQNKLTKEFYENLHYFRLFYELGVSPILLCNFRYHATTIEEEIQNLKKFLDELSTAQLIEHLEKVTSDRENSFIPTLARGLEWKDFSLNKDNQLLSDLRKDASSVYQHLFSFVDWYRQEIFDETWESKDIQRKLLTEIQHQASFLKESGFKAMFNHLQIDRIHWRKDRLVIIKPFDKDIQLKDSDSIMLLPSYFIWPHLFVESFNQGIAVTYDITEQPSYYNATPENLITIFKALSDPVRLQIMNYVIDKPSTTQSLAQILVMSNSSVSRHLQILKEANLLTTTKAKKFVLYEPTQLITQLMPNFYHFFKN”, the “soluble on expression in E. coli” value was “not soluble”.
For “MGSDKIHHHHHHMSYSDVIAIAGGWEGYRVAGARTIVTSDAKRIEVELIALSQDEMVCGSCGGRCTSVHETTKRVIRDLPILDAQTYLIVHRRRLLCPQCGPTLERLSWLAKYARVTRRLAESVARLCGVVSVKHVAQYLGLSWDQVKEIDKRSLTERVGTVDLSNIEVLGMDEFALHKGHRYATVIIEPYRKEVLWIGKGRSRESIRPFFTQLGPHGCKRLKAVVMDMNASYEEEIKQHSPQADIVYDLFHVVAKYGREVIDRVRVDEANRLKEDKKARKVVKTSRWLLLRNSENVKGDDMLRLQELLEANRSLLTVYLLKDDLKQLWKFTCIEEAGLFWEQWHQRAMESGIPPLILFARRLKGYLQGILNHCLWPLHTGILEGINNKIKVIKRMAYGFRDHEYFFLKIRAAFPGIPG”, the “soluble on expression in E. coli” value was “not soluble”.
In the case of “MIEDYALIGDMQIAALVCQDGTVDWLCLPRFDSHAVFAGLLGTEEHGFWRLGPAHASDAEPPRASRRTYRGDSLILESEWDTPRGTVRVTDFMPPRDGAPQLIRIVEGVTGRVPMRSALEHHHHHH”, the “soluble on expression in E. coli” value was “soluble”.
With “MAHHHHHHMELYQDNKINNVGNIEINQCDGVIKKENDLHVSVIKPITKKIIHCDNMENKMKINAFYKPVELVEEIKNYVHKGDTHLVKLYEDFKNKKDKKVKMKNEYMTKLKNLHILNMINNKKKENECGVVNKNNIVHFNLFNENEDVTPKIETVYIPKLEKNIEVVSHLKENVNVDYTYMVPKPVVIPIEVPILKFRDHFKIIPIRKKIIPVIKYTDNIIYVDCCVEKPYIVYENVIIPVPCDIPIEQKKYIDKVPPI” the “soluble on expression in E. coli” value was “not soluble”.
In the case of “RQRTASLIDTNHWLSRIIDLVPHPIFLKDHNGKYLLANIAQGELFGKKPEELLGKTDIDFVYNSDEYVVIKQSDDKVVSTRKTVVLPEQIVTLGDIKYYLYTSKVPLISPVDGELRILGVSINLT”, the “soluble on expression in E. coli” value was “not soluble”.
For “MGHPETTKFHHLSTKVTISVPEEECYGSTNRTSFNGEDIEEVLEAILKSGMKLKMEKSNFGHAKIKFLGYIVLEEGIQTDPKTIKAIAKFPQPENVTDVRKFIGFALY”, the “soluble on expression in E. coli” value was “not soluble”.
In the case of “MRVCVIGAGLSGLAMGHALKERGISFVCLEKAPDVGGIWRQPGAGERGPGYQSLHLNTARQLTGYADFPMPSDYPLYPRHDQVAAYLRSFAEWAGLLDHVELRTEVLSVRQDSDGSWTVVSRDADGAQSARRFEQVVVASGHHTDPALPDPLPAGADSFAGTILHSLDYRDGGDFAGRRVVVVGLGASAVDIAADLSRHAERTLLSVRRGLHIVPKQVFGMSLDEIAEAPWWNEMPFAERRRWVEQALLVARGRLSDYGLPEPDHPILSSATTLSDEILSRIRHGAVTPKPAIASFESDRVVFTDGSSEAADTVVYCTGFHMTFPFLPPGCPVAADGAVELYRRIVPADRPGLYFVGLVRPAGALTRLVEAQAQWVARLVDGAAALPGTEEMREEISTYLAGIVERYGRTRGASIQVDVSPYLAEFREPLPVLEHHHHHH”, the “soluble on expression in E. coli” value was “soluble”.
For “MSLTIYGVYRSRATRTLWLAAELGIEFKHVPVIQARRLADPLATDAPLNTLSPAFLAVNPMGTIPCIEDDGMVLYESMAINLYLARKYGGPLAPVDLKEDAAMLQWSFFAATEIETNSLKISSAIAEGLAESDAGKAVIDVAARLLKRPLRVLEQHLATHDYLVGDRFTVADLNVAEIVRYAQGHQPLFDAHPALKAWLARCQARTAFKSMWDSRTAEGHHHHHH”, the “soluble on expression in E. coli” value was “soluble”.
In the case of “MSSAQFDHVTVIKKSNVYFGGLCISHTVQFEDGTKKTLGVILPTEQPLTFETHVPERMEIISGECRVKIADSTESELFRAGQSFYVPGNSLFKIETDEVLDYVCHLEG”, the “soluble on expression in E. coli” value was “soluble”.
In the case of “MAHHHHHHMPLPPVEDAPNSMARRHYLVERNRLRVKKYEPTRQAFEEETVKLSKQRVEQRVAMLNSWKSSVPLHTDTTRPLPGAARRQKEKDEPAAKHINLQILDEDAALKRERRALLRADILQQKKDREEYLAKWRANEKAYDSALLATNAEFARQMQEQERQAAVATKQYMDMMRASNLKELEAKRAKQREKEEADVAALRTMQENLRLKMEADERRAKDMKRLMQIENEENHSLFKKKQAEDKAREDAWIRTMMEHNAALAERERREAEQKRQQFKADFEDTIAKQKEFRRTHDYDEPQELIRKRNEEAAASAVLIRQEERLRNNEQRKQYREELMKQMREKYEWQLSHLDGV”, the “soluble on expression in E. coli” value was “not soluble”.
